Consider eleven molecules from PMC5531539 (PLoS ONE, 2017).

B1: bH1 Fab LS30dL (Fab, V domains shown)
VH: not shown
VL: DIQMTQSPSSLSASVGDRVTITCRASQDIPRSILGYVAWYQQKPGKAPKLLIYWGSYLYSGVPSRFSGSGSGTDFTLTISSLQPEDFATYYCQQHYTTPPTFGQGTKVEIK
notes: as the heavy chain of Sm3; bH1 Fab light chain, parent as in Sm3; numbers count on: Bostrom et al; source: CHO-3E7, co-transfected, purified (His tag)
B2: bH1 Fab LS30dM (Fab, V domains shown)
VH: not shown
VL: B1 VL with L34M
notes: as for B1
B3: bH1 Fab (parent) (Fab, V domains shown)
VH: not shown
VL: B1 VL with L34S
notes: Fab heavy chain of bH1; numbers count on: Bostrom et al. [8]; Fab light chain of bH1; also called WT; source: CHO-3E7, co-transfected, His-tag purified
B4: bH1 Fab HD98W HY33W HG99M (Fab, V domains shown)
VH: EVQLVESGGGLVQPGGSLRLSCAASGFNIKDTWIHWVRQAPGKGLEWVARIYPTNGYTRYADSVKGRFTISADTSKNTAYLQMNSLRAEDTAVYYCSRWGGWMFYAMDYWGQGTLVTVSS
VL: B1 VL with L34S
notes: as the heavy chain of m4 with the stated changes; numbers count on: Bostrom et al. [8]; as the light chain of m4; source: CHO-3E7, co-transfected, His-tag purified
B5: bH1 Fab HD98W HY33W HG99D (Fab, V domains shown)
VH: B4 VH with M103D
VL: B1 VL with L34S
notes: as the heavy chain of m4 with the stated changes; numbers count on: Bostrom et al. [8]; as the light chain of m4; also called best triple mutant (bH1-VEGF); source: CHO-3E7, co-transfected, His-tag purified
B6: bH1 Fab HD98K HD31K LI29R (Fab, V domains shown)
VH: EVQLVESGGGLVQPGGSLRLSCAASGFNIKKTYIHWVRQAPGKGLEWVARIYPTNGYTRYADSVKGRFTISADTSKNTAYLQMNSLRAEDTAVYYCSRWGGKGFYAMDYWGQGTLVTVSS
VL: B1 VL with I29R, L34S
notes: as the heavy chain of m4 with the stated changes; numbers count on: Bostrom et al. [8]; as the light chain of m4 with the stated change; source: CHO-3E7, co-transfected, His-tag purified
B7: bH1 Fab HD98F HD31K LI29R (Fab, V domains shown)
VH: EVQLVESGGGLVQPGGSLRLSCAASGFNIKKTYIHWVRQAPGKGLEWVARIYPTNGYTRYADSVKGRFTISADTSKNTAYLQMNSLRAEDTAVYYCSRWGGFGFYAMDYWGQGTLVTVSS
VL: B1 VL with I29R, L34S
notes: as for B6
B8: bH1 Fab HD98Y HD31K LI29K (Fab, V domains shown)
VH: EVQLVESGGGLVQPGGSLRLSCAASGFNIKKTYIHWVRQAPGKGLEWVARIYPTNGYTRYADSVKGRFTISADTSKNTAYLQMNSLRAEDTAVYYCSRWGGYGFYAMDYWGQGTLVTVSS
VL: B1 VL with I29K, L34S
notes: as for B6
B9: bH1 Fab HD98K HD31K LI29K (Fab, V domains shown)
VH: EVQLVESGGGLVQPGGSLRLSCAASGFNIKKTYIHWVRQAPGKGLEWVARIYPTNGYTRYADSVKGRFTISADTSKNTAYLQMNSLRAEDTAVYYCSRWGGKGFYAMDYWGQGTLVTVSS
VL: B1 VL with I29K, L34S
notes: as for B6
B10: bH1 Fab HD98Y HD31K LI29R (Fab, V domains shown)
VH: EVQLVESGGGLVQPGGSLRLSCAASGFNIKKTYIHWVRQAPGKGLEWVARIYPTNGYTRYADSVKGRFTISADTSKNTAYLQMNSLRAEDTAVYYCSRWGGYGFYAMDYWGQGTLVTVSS
VL: B1 VL with I29R, L34S
notes: as the heavy chain of m4 with the stated changes; numbers count on: Bostrom et al. [8]; as the light chain of m4 with the stated change; also called best triple mutant (bH1-HER2); source: CHO-3E7, co-transfected, His-tag purified
B11: bH1 Fab HD98F HD31K LI29K (Fab, V domains shown)
VH: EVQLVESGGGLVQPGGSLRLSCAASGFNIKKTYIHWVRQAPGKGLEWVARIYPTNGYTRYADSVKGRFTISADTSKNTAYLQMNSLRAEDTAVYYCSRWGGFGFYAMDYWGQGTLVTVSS
VL: B1 VL with I29K, L34S
notes: as for B6

Where a chain is given by its changes, count along the chain named.

The first assay addresses T1, Full-length isoform 165 of human VEGF-A (Homo sapiens, UniProt P15692-4, strain).
T1 construct: vascular endothelial growth factor A, human, 165 amino acid isoform; also called VEGF165; source: produced recombinantly and purified
The experiment in a line: SPR; BioRad ProteOn XPR36, GLC chip; HER2 and VEGF amine-coupled (about 150 RU); Fab variants injected as analyte in 3-fold dilutions (top 30, 60 or 120 nM); 25C, PBS with 0.05% Tween 20 and 3.4 mM EDTA; 1:1 model; KWT/K uses the parent Fab's K of the same batch. The following applies: both partners purified.
T1 sequence (P15692 whole entry, looked up, change not shown, canonical isoform): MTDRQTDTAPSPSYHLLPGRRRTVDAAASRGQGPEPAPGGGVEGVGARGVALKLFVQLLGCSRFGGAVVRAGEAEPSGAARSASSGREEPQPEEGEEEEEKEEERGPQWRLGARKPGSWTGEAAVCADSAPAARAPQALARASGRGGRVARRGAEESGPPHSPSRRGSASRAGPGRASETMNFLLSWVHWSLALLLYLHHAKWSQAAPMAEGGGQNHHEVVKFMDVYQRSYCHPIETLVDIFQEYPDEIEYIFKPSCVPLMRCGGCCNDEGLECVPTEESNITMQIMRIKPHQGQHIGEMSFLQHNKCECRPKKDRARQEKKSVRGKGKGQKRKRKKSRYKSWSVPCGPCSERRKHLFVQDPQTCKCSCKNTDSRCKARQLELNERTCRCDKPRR
Take B1: the binding result is recorded as “no binding”.
Regarding B2, the binding result was “no binding”.

A further assay concerns the target T2, Full-length isoform 165 of human VEGF-A (Homo sapiens, UniProt P15692-4, strain).
T2 construct: human vascular endothelial growth factor A, 165 amino acid isoform (VEGF165); also called VEGF165
Nature of the assay: SPR; BioRad ProteOn XPR36; HER2 or VEGF amine-coupled to a GLC chip (about 150 RU); Fab as analyte, 3-fold dilutions from 30, 60 or 120 nM; 25C; PBS, 0.05% Tween 20, 3.4 mM EDTA; 1:1 binding model, KD from koff/kon. The following applies: both partners purified.
T2 sequence (P15692 whole entry, looked up, change not shown, canonical isoform): as above
B3 showed a dissociation constant Kd of 44 ± 17 nM, a koff of 0.009 s⁻¹ and an association rate constant (kon) of 220000 M⁻¹ s⁻¹.
On the same counts, the results for B4 are 1.2 ± 0.2 nM, 0.00034 s⁻¹ and 290000 M⁻¹ s⁻¹.
In the case of B5, the Kd is 0.5 ± 0.1 nM, the koff stood at 7e-05 s⁻¹ and the kon came out at 160000 M⁻¹ s⁻¹.

The next assay deals with T3, Recombinant soluble human HER2 extracellular domain (Homo sapiens, UniProt P04626).
T3 construct: human HER2 (ErbB2), soluble extracellular domain; also called HER2 ectodomain; Receptor-tyrosine kinase ErbB2 soluble ectodomain; source: bought: eBioscience
The description is as above. The conditions noted are these: both partners purified.
In the case of B3, the Kd is 3.6 ± 0.6 nM, the koff was 0.0013 s⁻¹ and the on-rate (kon) stood at 370000 M⁻¹ s⁻¹.
Consider B6, for which the equilibrium dissociation constant (Kd) is 0.11 ± 0.02 nM, the koff came to 0.00045 s⁻¹ and the kon worked out at 4.4e+06 M⁻¹ s⁻¹.
As to B7, the Kd worked out at 0.11 ± 0.02 nM, the koff amounted to 0.00029 s⁻¹ and the kon turned out to be 2.7e+06 M⁻¹ s⁻¹.
In the same order, the values of B8 are 0.14 ± 0.09 nM, 0.00028 s⁻¹ and 2.2e+06 M⁻¹ s⁻¹.
On the same counts, the results for B9 are 0.15 ± 0.05 nM, 0.00039 s⁻¹ and 2.3e+06 M⁻¹ s⁻¹.
B10: the Kd was found to be 0.07 ± 0.01 nM, the koff stood at 0.00025 s⁻¹ and the association rate constant (kon) is 3.8e+06 M⁻¹ s⁻¹.
In the same order, the values of B11 are 0.14 ± 0.05 nM, 0.00029 s⁻¹ and 2.2e+06 M⁻¹ s⁻¹.
